{"source": "patent US20220056149A1", "about": "(LUMOSA THERAPEUTICS, published 2022)", "key": {"[1]": {"target": "T1, hEGFR-Fc (Sino Biological) (human, UniProt P00533 25-645)", "T1 construct": "Bought; also called human EGFR; humans EGFR-Fc protein; not shown: Fc part of a bought fusion protein", "experiment": "antigen binding activity, summary table; assay not named on the sheet"}, "[2]": {"target": "T1, hEGFR-Fc (Sino Biological)", "experiment": "ELISA, plate coated with human EGFR-Fc, anti-His-HRP detection"}, "[3]": {"target": "T2, Human VEGFR2-Fc (Sino Biological) (human, UniProt P35968 20-764)", "T2 construct": "Bought; not shown: Fc part of a bought fusion protein", "T2 sequence (P35968 20-764 limits assumed)": "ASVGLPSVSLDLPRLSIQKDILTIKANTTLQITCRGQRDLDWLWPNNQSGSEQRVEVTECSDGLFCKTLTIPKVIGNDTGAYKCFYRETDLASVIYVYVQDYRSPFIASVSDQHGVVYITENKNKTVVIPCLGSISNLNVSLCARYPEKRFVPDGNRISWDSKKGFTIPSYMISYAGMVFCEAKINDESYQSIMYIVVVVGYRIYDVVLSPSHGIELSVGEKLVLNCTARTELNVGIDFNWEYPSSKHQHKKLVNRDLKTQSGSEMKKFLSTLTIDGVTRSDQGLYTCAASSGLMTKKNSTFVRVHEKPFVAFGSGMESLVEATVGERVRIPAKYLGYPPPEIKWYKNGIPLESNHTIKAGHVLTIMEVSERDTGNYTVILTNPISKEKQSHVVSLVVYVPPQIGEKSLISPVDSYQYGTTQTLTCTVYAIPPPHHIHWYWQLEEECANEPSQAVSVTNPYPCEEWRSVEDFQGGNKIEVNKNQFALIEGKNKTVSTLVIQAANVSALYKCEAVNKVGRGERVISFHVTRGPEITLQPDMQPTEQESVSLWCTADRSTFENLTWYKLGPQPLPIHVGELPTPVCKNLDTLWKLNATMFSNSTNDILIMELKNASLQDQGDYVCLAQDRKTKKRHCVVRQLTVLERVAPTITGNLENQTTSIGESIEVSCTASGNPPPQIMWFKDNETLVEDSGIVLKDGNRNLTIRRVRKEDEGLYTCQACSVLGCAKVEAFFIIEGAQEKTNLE", "experiment": "antigen binding activity, summary table; assay not named on the sheet"}, "[4]": {"target": "T3, human ErbB2/Her2-Fc (Acro biosystem) (human, UniProt P04626 23-652)", "T3 construct": "Bought; also called human HER2; not shown: Fc part of a bought fusion protein", "experiment": "ELISA, plate coated with human ErbB2/Her2-Fc"}, "[5]": {"target": "T2, Human VEGFR2-Fc (Sino Biological)", "experiment": "ELISA, plate coated with human VEGFR2-Fc 1ug/ml, anti-His-HRP detection"}, "[6]": {"target": "T4, human CEACAM5-Fc (novoprotein) (human, UniProt P06731 35-685, limits assumed)", "T4 construct": "Bought; not shown: Fc part of a bought fusion protein", "T4 sequence (looked up)": "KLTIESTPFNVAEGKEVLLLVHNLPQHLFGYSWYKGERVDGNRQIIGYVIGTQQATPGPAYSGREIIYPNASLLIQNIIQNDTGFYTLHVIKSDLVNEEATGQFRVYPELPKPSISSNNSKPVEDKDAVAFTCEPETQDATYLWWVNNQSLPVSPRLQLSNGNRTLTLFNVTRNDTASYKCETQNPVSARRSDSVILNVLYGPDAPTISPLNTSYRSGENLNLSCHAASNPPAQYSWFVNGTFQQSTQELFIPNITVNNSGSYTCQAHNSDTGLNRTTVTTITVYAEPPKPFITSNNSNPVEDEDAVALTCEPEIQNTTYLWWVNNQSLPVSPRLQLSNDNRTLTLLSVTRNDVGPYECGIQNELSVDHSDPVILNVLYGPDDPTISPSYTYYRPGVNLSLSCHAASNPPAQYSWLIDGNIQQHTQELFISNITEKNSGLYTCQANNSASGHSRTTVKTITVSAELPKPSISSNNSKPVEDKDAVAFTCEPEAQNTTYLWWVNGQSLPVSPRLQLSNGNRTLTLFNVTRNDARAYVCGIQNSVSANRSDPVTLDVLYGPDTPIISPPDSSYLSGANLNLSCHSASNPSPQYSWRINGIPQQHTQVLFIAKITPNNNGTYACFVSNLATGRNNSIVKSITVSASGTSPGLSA", "experiment": "antigen binding activity, summary table; assay not named on the sheet"}, "[7]": {"target": "T5, human ErbB3/Her3-Fc (Acro biosystem) (human, UniProt P21860 20-643)", "T5 construct": "Bought; also called human HER3; not shown: Fc part of a bought fusion protein", "experiment": "ELISA, plate coated with human ErbB3/Her3-Fc"}}, "data": [{"binder": "DOM-16-39-CD-H (VHH) sdAb-CD fusion: MDIQMTQSPTSLSASVGDRVTITCRASQWIGNLLDWYQQKPGEAPKLLIYYASFLQSGVPSRFSGGGFGTDFTLTISSLQPEDFATYYCQQANPAPLTFGQGTKVEIKRGGGGSGGGGSGGGGSVTGGMASKWDQKGMDIAYEEAALGYKEGGVPIGGCLINNKDGSVLGRGHNMRFQKGSATLHGEISTLENCGRLEGKVYKDTTLYTTLSPCDMCTGAIIMYGIPRCVVGENVNFKSKGEKYLQTRGHEVVVVDDERCKKIMKQFIDERPQDWFEDIGEGSSHHHHHH", "values": [{"measurement": "binding result", "setting": "[1]", "value": "binds"}]}, {"binder": "VHH122-CD-H (VHH, sdAb-cytosine deaminase fusion with C-terminal His-tag; Built from parts) VHH: EVQLQESGGGLVQAGDSLRLSCLVSGRSFNSYTMGWFRQAPGKEREFVAAILWSGPTTYYADSVKGRFTISRDNAKNTVYLQMNSLKPEDTAVYYCAAALGVLVLAPGNVYSYWGQGTQVTVSS", "values": [{"measurement": "EC50 (read off the curve)", "setting": "[2]", "value": "~0.8", "unit": "nM"}]}, {"binder": "3VGR17-CD-H (VHH) VHH: QVQLQESGGGSVQAGGSLRLSCAASGYTYCSYDMGWYRQAPGKEREFVSAIDNYGRTGYADSVKGRFTISQDNAKNTSYLQMNSLKPEDTAIYYCKVDVCPDPSRPGRPGYWGQGTQVTVSS", "values": [{"measurement": "binding result", "setting": "[3]", "value": "binds"}]}, {"binder": "2D3-CDoem3-H (VHH, sdAb-cytosine deaminase fusion with C-terminal His-tag; Built from parts) VHH: EVQLVESGGSLVQPGGSLRLSCAASGFTFDDYAMSWVRQVPGKGLEWVSSINWSGTHTDYADSVKGRFTISRNNANNTLYLQMNSLKSEDTAVYYCAKNWRDAGTTWFEKSGSAGQGTQVTVSS", "values": [{"measurement": "EC50 (read off the curve)", "setting": "[4]", "value": "~0.1", "unit": "nM"}]}, {"binder": "3VGR19-CD-H (VHH, sdAb-cytosine deaminase fusion with C-terminal His-tag, made in E. coli; Built from parts; An N-terminal Met may precede the sdAb) VHH: QVQLQESGGGSVQAGGSLRLSCVASGYSVSKNSMGWFRQAPGKEREGVAGINEGGTATYYANSVKGRFTISQDNAKNTVYLQMNTLKPEDTAIYYCAAGSPDPPPLIESVVKYWGQGTQVTVSS", "values": [{"measurement": "binding result", "setting": "[3]", "value": "binds"}]}, {"binder": "3VGR10-CD-H (VHH) VHH: QVQLQESGGGSVQAGGSLRLSCVASGYSVSKNSMGWFRQAPGKEREGVAGINEGGTATYYANSVKGRFTISQDNARNTVYLQMNTLKPEDTAIYYCAAGSPDPPPLIESVVKYWGQGTQVTVSS", "values": [{"measurement": "binding result", "setting": "[3]", "value": "binds"}]}, {"binder": "4VGR17-CD-H (VHH, sdAb-cytosine deaminase fusion with C-terminal His-tag; Built from parts) VHH: QVQLQESGGGSVQAGGSLRLSCVASGYSVSKNSMGWFRQAPGKEREGVAGINYGGTATYYANSVKGRFTISQDNAKNTVYLQMNTLKPEDTAIYYCAAGSPDPPPLIEGVVKYWGQGTQVTVSS", "values": [{"measurement": "EC50 (read off the curve)", "setting": "[5]", "value": "~0.02", "unit": "µg/mL"}]}, {"binder": "GE10-CD-H (other) antigen binding fragment-CD fusion: MLHLWVPEPWTQTGGGGSGGGGSGGGGSVTGGMASKWDQKGMDIAYEEAALGYKEGGVPIGGCLINNKDGSVLGRGHNMRFQKGSATLHGEISTLENCGRLEGKVYKDTTLYTTLSPCDMCTGAIIMYGIPRCVVGENVNFKSKGEKYLQTRGHEVVVVDDERCKKIMKQFIDERPQDWFEDIGEGSSHHHHHH", "values": [{"measurement": "binding result", "setting": "[1]", "value": "binds"}]}, {"binder": "GE11-CD-H (other) antigen binding fragment-CD fusion: MYHWYGYTPQNVIGGGGSGGGGSGGGGSVTGGMASKWDQKGMDIAYEEAALGYKEGGVPIGGCLINNKDGSVLGRGHNMRFQKGSATLHGEISTLENCGRLEGKVYKDTTLYTTLSPCDMCTGAIIMYGIPRCVVGENVNFKSKGEKYLQTRGHEVVVVDDERCKKIMKQFIDERPQDWFEDIGEGSSHHHHHH", "values": [{"measurement": "binding result", "setting": "[1]", "value": "no binding"}]}, {"binder": "Inherbin3-CD-H (other) antigen binding fragment-CD fusion: MLVYNKLTFQLEPNPHTKGGGGSGGGGSGGGGSVTGGMASKWDQKGMDIAYEEAALGYKEGGVPIGGCLINNKDGSVLGRGHNMRFQKGSATLHGEISTLENCGRLEGKVYKDTTLYTTLSPCDMCTGAIIMYGIPRCVVGENVNFKSKGEKYLQTRGHEVVVVDDERCKKIMKQFIDERPQDWFEDIGEGSSHHHHHH", "values": [{"measurement": "binding result", "setting": "[1]", "value": "binds"}]}, {"binder": "Inherbin1-CD-H (other) antigen binding fragment-CD fusion: MMLYNPTTYQMDVNPEGKGGGGSGGGGSGGGGSVTGGMASKWDQKGMDIAYEEAALGYKEGGVPIGGCLINNKDGSVLGRGHNMRFQKGSATLHGEISTLENCGRLEGKVYKDTTLYTTLSPCDMCTGAIIMYGIPRCVVGENVNFKSKGEKYLQTRGHEVVVVDDERCKKIMKQFIDERPQDWFEDIGEGSSHHHHHH", "values": [{"measurement": "binding result", "setting": "[1]", "value": "no binding"}]}, {"binder": "4VGR38-CD-H (VHH, sdAb-cytosine deaminase fusion with C-terminal His-tag; Built from parts) VHH: QVQLQESGGGSVQAGGSLTLSCEVSGYSVNSNSMGWFRQAPGKEREGVAGINEGGVSTYYANFVQGRFTISQDNAKNMVYLQMNSLKPEDTAIYYCAAGAPDPPPLIESIVKYWGQGTQVTVSS", "values": [{"measurement": "binding result", "setting": "[5]", "value": "binds"}]}, {"binder": "47D5-CDoem3-H (VHH, sdAb-cytosine deaminase fusion with C-terminal His-tag; Built from parts) VHH: KVQLVESGGGLVQPGGSLRLSCAASGSIFGFNDMAWYRQAPGKQRELVALISRVGVTSSADSVKGRFTISRVNAKDTVYLQMNSLKPEDTAVYYCYMDQRLDGSTLAYWGQGTQVTVSS", "values": [{"measurement": "EC50 (read off the curve)", "setting": "[4]", "value": "~0.2", "unit": "nM"}]}, {"binder": "NbCEA5-CDoem3-H (VHH, sdAb-cytosine deaminase fusion with C-terminal His-tag; Built from parts) VHH: QVQLVESGGGSVQAGGSLRLSCAASGDTYGSYWMGWFRQAPGKEREGVAAINRGGGYTVYADSVKGRFTISRDTAKNTVYLQMNSLRPDDTADYYCAASGVLGGLHEDWFNYWGQGTQVTVSS", "values": [{"measurement": "binding result", "setting": "[6]", "value": "binds"}]}, {"binder": "BCD090-M2-CDoem3-H (VHH) VHH: QVQLVQSGGGLVQAGGSLRLSCAFSGRTFSMYTMGWFRQAPGKEREFVAANRGRGLSPDIADSVNGRFTISRDNAKNTLYLQMDSLKPEDTAVYYCAADLQYGSSWPQRSSAEYDYWGQGTTVTVSS", "values": [{"measurement": "EC50 (read off the curve)", "setting": "[7]", "value": "~0.5", "unit": "nM"}]}]}
